According to the Immune Epitope Database (IEDB):

Assays:
HLA-A*30:02 = experiment: IEDB peptide-MHC binding, purified MHC/competitive/radioactivity; filed as Kd, often an IC50 or EC50 that approximates it; ≥ and ≤ were set here for values at or beyond the usual limits of such assays
HLA-A*01:01 = experiment: as above
HLA-A*02:01 [1] = experiment: IEDB peptide-MHC binding, purified MHC/competitive/fluorescence; ≥ and ≤ were set here for values at or beyond the usual limits of such assays
HLA-A*69:01 = experiment: IEDB peptide-MHC binding, purified MHC/direct/fluorescence; filed as Kd, often an IC50 or EC50 that approximates it; ≥ and ≤ were set here for values at or beyond the usual limits of such assays
HLA-A*02:01 [2] = experiment: as above
HLA-A*24:02 = experiment: IEDB peptide-MHC binding, purified MHC/competitive/radioactivity; filed as Kd, often an IC50 or EC50 that approximates it; ≥ and ≤ were set here for values at or beyond the usual limits of such assays
HLA-A*23:01 = experiment: as above
HLA-A*02:06 = experiment: as above
HLA-A*02:02 = experiment: as above
HLA-A*02:03 = experiment: as above
[3] = source organism: Dengue virus 4 Philippines/H241/1956
[4] = source organism: Sudan ebolavirus
[5] = source organism: Salmonella enterica subsp. enterica serovar Typhimurium
[6] = source organism: Dengue virus 2 Jamaica/1409/1983
[7] = source organism: Dengue virus 3 Sri Lanka/1266/2000
[8] = source organism: Zaire ebolavirus
[9] = source organism: Aromatoleum aromaticum
[10] = source organism: Dengue virus 1 Brazil/97-11/1997
[11] = source organism: Vaccinia virus WR
[12] = source organism: Pseudomonas aeruginosa
[13] = source organism: Dengue virus 4 Dominica/814669/1981
[14] = source organism: Mycobacterium tuberculosis
[15] = source organism: Mammarenavirus brazilense
[16] = source organism: SARS coronavirus Tor2
[17] = source organism: Mammarenavirus machupoense
[18] = source organism: Giardia lamblia ATCC 50803

| Sequence | Kd (HLA-A*02:06; [11]) | Kd (HLA-A*02:02; [11]) | Kd (HLA-A*02:03; [11]) | also measured |
| --- | --- | --- | --- | --- |
| LSSTRVPNY |  |  |  | Kd (HLA-A*30:02; [3]): 194 nM; Kd (HLA-A*01:01; [3]): 2.04 µM |
| RILGPDCCI |  |  |  | IC50 (HLA-A*02:01 [1]; [4]): 64 µM |
| ALSMADIFI |  |  |  | Kd (HLA-A*69:01; [5]): 1080 nM; Kd (HLA-A*02:01 [2]; [5]): 106 nM |
| DWIPLALTI |  |  |  | Kd (HLA-A*24:02; [6]): 16 nM |
| VSLTCSNTIF |  |  |  | Kd (HLA-A*01:01; [7]): 7.76 µM |
| EQYQQLREA |  |  |  | IC50 (HLA-A*02:01 [1]; [8]): ≥ 221 µM |
| VLEGFEGDL |  |  |  | Kd (HLA-A*69:01; [9]): ≥ 20000 nM; Kd (HLA-A*02:01 [2]; [9]): 17000 nM |
| SEELSFTVV |  |  |  | IC50 (HLA-A*02:01 [1]; [8]): ≥ 145 µM |
| ILDNQGRVV |  |  |  | Kd (HLA-A*02:01 [2]; source organism: Venezuelan equine encephalitis virus): 1210 nM |
| WTEAKMLLD |  |  |  | Kd (HLA-A*01:01; [10]): 0.943 µM |
| QLLEAVYGN |  |  |  | IC50 (HLA-A*02:01 [1]; source organism: Vaccinia virus Copenhagen): 21.6 µM |
| LIGIEILNT |  |  |  | IC50 (HLA-A*02:01 [1]; [11]): ≥ 147 µM |
| ACMDGFEVV |  |  |  | Kd (HLA-A*69:01; [12]): 2700 nM; Kd (HLA-A*02:01 [2]; [12]): 290 nM |
| MFGGVSWMI |  |  |  | Kd (HLA-A*24:02; [13]): 78.3 nM; Kd (HLA-A*23:01; [13]): 41.8 nM |
| NFLEVEDYGF |  |  |  | Kd (HLA-A*24:02; [3]): ≥ 31700 nM; Kd (HLA-A*23:01; [3]): 54.7 nM |
| NLEGSGVST |  |  |  | IC50 (HLA-A*02:01 [1]; [4]): 67.6 µM |
| EDLIEWAME |  |  |  | IC50 (HLA-A*02:01 [1]; source organism: Vaccinia virus): ≥ 94.7 µM |
| SVMATEEPT |  |  |  | IC50 (HLA-A*02:01 [1]; [4]): ≥ 115 µM |
| RGSGQVGTY |  |  |  | Kd (HLA-A*30:02; [6]): 208 nM |
| VSQHNYRPGY |  |  |  | Kd (HLA-A*30:02; [6]): 385 nM; Kd (HLA-A*01:01; [6]): 6.79 µM |

| Sequence | Kd (HLA-A*02:06; [11]) | Kd (HLA-A*02:02; [11]) | Kd (HLA-A*02:03; [11]) | also measured |
| --- | --- | --- | --- | --- |
| SYLAGAGLL |  |  |  | Kd (HLA-A*24:02; [6]): 19.4 nM |
| KAALSEGVY |  |  |  | Kd (HLA-A*30:02; [13]): 15 nM |
| TWRDMAHTLI |  |  |  | Kd (HLA-A*24:02; source organism: Dengue virus 3 Martinique/1243/1999): 387 nM |
| NNNTHHQDT |  |  |  | IC50 (HLA-A*02:01 [1]; [8]): ≥ 253 µM |
| KIMEIVSHL | 29.7 nM | 79 nM | 10.3 nM |  |
| KINEMVDEL | 317 nM | 1.42 nM | 75.6 nM |  |
| ESQMLIPKSY |  |  |  | Kd (HLA-A*30:02; [13]): 1210 nM; Kd (HLA-A*01:01; [13]): 8.37 µM |
| IITILQDIV | 658 nM | 827 nM | 666 nM |  |
| AVGIGLRLV |  |  |  | Kd (HLA-A*69:01; [14]): ≥ 20000 nM; Kd (HLA-A*02:01 [2]; [14]): 128 nM |
| GLLEWIFRA |  |  |  | Kd (HLA-A*02:06; [15]): 7.13 nM; Kd (HLA-A*02:02; [15]): 21.9 nM; Kd (HLA-A*02:03; [15]): 225 nM |
| DIISSKQYPA | 3100 nM | 552 nM | 2430 nM |  |
| YTYPDSLEE |  |  |  | IC50 (HLA-A*02:01 [1]; [8]): ≥ 264 µM |
| GTTVVKVKY |  |  |  | Kd (HLA-A*30:02; [3]): 244 nM |
| FAISYCRAFI | 34.5 nM | 105 nM | 38.3 nM |  |
| LALKNSQAEL | 1250 nM | 741 nM | 333 nM |  |
| DIPTFNSLNT | 45.3 nM | 2020 nM | 16600 nM |  |
| AGPISQHNY |  |  |  | Kd (HLA-A*30:02; [7]): ≥ 76900 nM |
| WHLGKLELDF |  |  |  | Kd (HLA-A*23:01; [10]): 296 nM |
| IAEYIAGLKI | 10200 nM | ≥ 28600 nM | ≥ 23000 nM |  |
| KLAGGVAVL |  |  |  | IC50 (HLA-A*02:01 [1]; source organism: Porphyromonas gingivalis): 0.12 µM |

| Sequence | Kd (HLA-A*02:06; [11]) | Kd (HLA-A*02:02; [11]) | Kd (HLA-A*02:03; [11]) | also measured |
| --- | --- | --- | --- | --- |
| CTMERTNDL | 95.7 nM | 36.2 nM | 25.5 nM |  |
| SLTQVKELGI | 157 nM | 9.75 nM | 75.4 nM |  |
| GLIAIVMVTI |  |  |  | Kd (HLA-A*02:06; [16]): 137 nM; Kd (HLA-A*02:02; [16]): 7.63 nM; Kd (HLA-A*02:03; [16]): 18.9 nM |
| TAIRAGYSIV | 8590 nM | 6820 nM | 71.8 nM |  |
| LEELLPAVS |  |  |  | IC50 (HLA-A*02:01 [1]; [8]): ≥ 141 µM |
| NASKTINALV | 3220 nM | 765 nM | 274 nM |  |
| TLNTLITLI | 941 nM | 0.989 nM | 0.596 nM |  |
| IIELPYVGDT | 16900 nM | 13700 nM | 4420 nM |  |
| MLPESDLDKV | 4.42 nM | 3.23 nM | 1770 nM |  |
| PLISILMIFI | 2420 nM | 433 nM | 769 nM |  |
| LNKSDSSWAV |  |  |  | Kd (HLA-A*02:06; [17]): 2190 nM; Kd (HLA-A*02:02; [17]): 550 nM; Kd (HLA-A*02:03; [17]): 5250 nM |
| IAVFDSKLI | 11900 nM | 7850 nM | 11900 nM |  |
| LLPLTSLVI | 1430 nM | 2390 nM | 621 nM |  |
| FMYEDALKS |  |  |  | Kd (HLA-A*69:01; [18]): 1360 nM; Kd (HLA-A*02:01 [2]; [18]): 43.5 nM |
| VVYHDDDNTT | 3920 nM | 1860 nM | 12600 nM |  |
| AILGDTAWDF |  |  |  | Kd (HLA-A*23:01; [6]): 3710 nM |
| GIIITVGMLI | 1130 nM | 3580 nM | 595 nM |  |
| EAAAATCALV | 60.1 nM | 1810 nM | 248 nM |  |
| VQEFIFSAL | 198 nM | 419 nM | 466 nM |  |
| VAMLLTHGA | 726 nM | 7160 nM | 628 nM |  |
